The supplement of paper PMC12764529
± gives the half width of the 95% confidence interval.

Assay: folding stability dG unfold (combined trypsin and chymotrypsin); higher = more stable
Outline: (§1)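 Sequencing followed digestion of designed mini-proteins with trypsin and chymotrypsin, each at 11 concentrations in threefold dilutions together with a no-protease condition. The mini-proteins were under 80 residues, had no cysteine, sat in a PA-tagged cDNA display construct, and were kept only if AlphaFold2 dimer inter-PAE was above 15. From the counts, Bayesian fitting gave K50, and unfolding free energy was derived against a sequence-predicted unfolded-state K50 and a shared folded-state K50, per protease or combined.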

| Sequence | folding stability dG unfold |
| --- | --- |
| SAGGSAGGSAQPIPIKIRIRMRDDGKPQTFTFEVPVKPGATESTILDKIMKKFPGFRHIEIESAGGSAGGSA [r18_195_TrROS] | 1.06 ± 0.085 kcal/mol |
| SAGGSMSPALNKKLDVEEITADEEEAKKIAKESKKPVIVTLPDGTVLRFNTDGSVTEYPLPPPELLSAGGSA [r2_34_JUSTAS] | 0.958 ± 0.12 kcal/mol |
| SAGGSEVKIVKIESVEIEEENGFLRIKVRATLKFYDKETGELVEEKEVELEVTLKNGKKLTFKIKASAGGSA [r2_271_TrROS_Hall] | 3.12 ± 0.58 kcal/mol |
| SAPKRYYIKIEIYDNGKKQEITIPIGATIKNPGGKEYTYPVDSPEDLEEALNDLFPPGFPIKIDDVHPPSAG [r14_41_TrROS] | 0.973 ± 0.11 kcal/mol |
| SAGGSIEELAEELARRFAEENGAAEVRVEVEGLPDNTVLVRVYVRGPDGELLGVVDALIPVPEDELSAGGSA [r2_153_TrMRF] | 2.05 ± 0.085 kcal/mol |
| SAGGMTIVEKDGKLVLKITVTVPPGTTVEELKNALKELFGVEEVKVVKIEKNENGEITITVEAVFPKSAGGS [r16_234_TrROS_Hall] | 3.03 ± 0.11 kcal/mol |
| SAGGSAGGSAMVITKTTASVEEVKEEIKKEYPNANVKITKVSTSADGKTTYKIEIKIPKNNKSAGGSAGGSA [r18_464_JUSTAS] | 2 ± 0.16 kcal/mol |
| SAGGSAGGSAGGWIRNKDGKPVKLEIYPFPVEMWMYRKKPDGGWEPHPMRMPFTFIRITPSAGGSAGGSAGG [r7_90_TrROS] | 1.65 ± 0.11 kcal/mol |
| SAGGSAGGSAGSMSVSVTKLPNGDYVVTTTTSETSTSTTGSTPVTTTTTTTTVTTLPSSSSAGGSAGGSAGG [r17_432_JUSTAS] | 1.57 ± 0.046 kcal/mol |
| SAGGSSPELAAERLAEELRRQGYAVREVVVTYDPAGTVTVSAVIEDPADPAATSTLTVTVPLAELGSAGGSA [r2_384_JUSTAS] | 2.73 ± 0.046 kcal/mol |
| SAGGSAGGSAGGMPVEVTTLETRKDPAGTTTEITLDPKTGRTIIVTKYPNGGSETTVVESAGGSAGGSAGGS [r10_1118_JUSTAS] | 0.622 ± 0.17 kcal/mol |

Assay: folding stability dG unfold from chymotrypsin proteolysis; higher = more stable
Outline: as §1

| Sequence | folding stability dG unfold |
| --- | --- |
| SAGGKTISIEFYMPPGEPPPSIEEIAKELFPGYKDIKIKNIEIEDVEPDPDNGMKYVRVSFTIEVEPPSAGG [r13_10_TrROS] | 3.42 ± 0.23 kcal/mol |
| SAGSSAVEVDIDEELKEKLKKLIDPDKPIEITRLKTTTNETIILITEKGSGKKYIFTRNKEGKIEIKKSAGG [r19_70_JUSTAS] | 2.5 ± 0.065 kcal/mol |
| SAGGSAGGSMKIPEDETYEEKLPDGRKVTYTWEPESGLLKTTTTDPNNDTPTTSTYKVPPSSLLSAGGSAGG [r6_407_JUSTAS] | 0.49 ± 0.31 kcal/mol |
| SAGGSAMKITITVEKKEDGTYRVTIEIDGKKIEIEMSVEDLKKKLEELAKELFPDKPIKVEVKPVPSAGGSA [r15_925_TrROS_Hall] | 4.13 ± 0.36 kcal/mol |
| SAGLKVRIRTKDGREIEIEVSEEEAERLVKELEDAGFTVERVEVEELEPEEEKEELEEEERELKEELEESAG [r5_645_TrROS_Hall] | 2.91 ± 0.069 kcal/mol |
| SAGGSAGGSAGGKTYKITVSSGDTYLTISIELPDGLVLTYKITPNSIEVEIKPLKDFNESAGGSAGGSAGGS [r10_1169_TrMRF] | 5.3 ± 0.2 kcal/mol |
| SAGGSAGGSAGKVVVDFGKPALAEAFGVPLSEIENMSEEEALALAKPLVEEGVVDEVVLSSAGGSAGGSAGG [r11_80_TrMRF] | 0.524 ± 0.042 kcal/mol |
| SAGGSAGGKLKINNEEIGPDKSFPLKKGKEIKVYKDYVKVFVIDPKTNKKKEYTIKLEDLKKLFSAGGSAGG [r6_940_TrMRF] | 1.39 ± 0.2 kcal/mol |
| SAGGSAGGSKGVKELVIVVPPDKPEKIEEFLKKLRDEYAKDIKVLEVKETPDGGYIAKIKITDSAGGSAGGS [r12_91_TrMRF] | 1.96 ± 0.071 kcal/mol |
| SNYINEPIYVPPSVDPEEVKKKVEERVEEIKKKLGLPPNISVSVTPVALPEGSVTYRVTVTVDGETYNSSSA [r9_776_JUSTAS] | 0.488 ± 0.17 kcal/mol |
| SAGGSAGGSLSLPEGFKLSSLVSVEELPGVLRIYFLDPEKPLLYEVVYDLETGEQTVERIPIGSAGGSAGGS [r12_206_JUSTAS] | 2.6 ± 0.051 kcal/mol |
| SAGGSAGGMILIKNEDGSLYLIEVETVTVTVKVKLPEELKELLKGIKPGDTITVTVTKVRIVKLSAGGSAGG [r6_907_TrROS_Hall] | 4.58 ± 0.11 kcal/mol |
| SAGGSAGGSAGGMTKLEPLATEPNPLKVLTKVTTTDPVTGKPKTTIVETEIPVPESELGSAGGSAGGSAGGS [r10_846_JUSTAS] | -0.0657 ± 0.13 kcal/mol |
| SAGGSAGGSAEELVKYLAKEHGHPPGKEVTIPFDNWMIKIRYNNDGVPVGVEIKPMPPDDMSAGGSAGGSAG [r3_468_TrROS] | 0.288 ± 0.12 kcal/mol |
| SAGGWITVNQIRDLAKELPPGWRIKIKIEYPGKKHEHTIPPGDPITIPPNMPPEDITRIEITEIEPYSAGGS [r16_97_TrROS] | 0.444 ± 0.18 kcal/mol |
| SAGGSAGGDEIADKVKDLLRKHGWPVKEVEVTVMPHPPGRVYVMIEITMEHPGKKWTMEIMVEVSAGGSAGG [r6_533_TrROS] | 4.79 ± 0.054 kcal/mol |
| SAGGSADRVTVTVTVRVRDPATGEWREVTETVTVPAPLTLEITLPPGWRLRLTLEDGELRLEVEPESAGGSA [r2_109_TrROS_Hall] | 4.26 ± 0.051 kcal/mol |
| SAGGSAGGSAGGSLPLILRLAEENGFSVSAVPIPETGTYKAVVTLPDGKPITIELPLTLSAGGSAGGSAGGS [r4_121_TrMRF] | 1.04 ± 0.33 kcal/mol |
| SAGGSAGMTITSATEVGTTTFNGGSITHYTLTTPSGKTITGEVDPATGTLTISFPETGLSITIPPKSAGGSA [r15_159_JUSTAS] | 0.729 ± 0.19 kcal/mol |
| SSPANITTTTTSSPLNLETFDPKTGKKKRINYTLTTETVTFPGGEVVTTTVLKDASTGKVTTLSTTVTPTSA [r9_402_JUSTAS] | 1.22 ± 0.14 kcal/mol |
| SAGGKYTFTPAPPNSESEVVKKAEELKKKLAEEPGVDKKIEIEIKPSPDGSLTIKVTFSTGTYDAAASAGGS [r16_356_JUSTAS] | 1.32 ± 0.094 kcal/mol |
